Experiments:
EGF3-EGF6 = target: T1, EGF3-EGF6; test: flow cytometry on CHO cells with the HA tagged DLL3 construct, PE anti-mouse IgG
T1 construct: also called Human DLL3 EGF3-EGF6, N-terminal HA tag, on CHO cells
T1 single chain: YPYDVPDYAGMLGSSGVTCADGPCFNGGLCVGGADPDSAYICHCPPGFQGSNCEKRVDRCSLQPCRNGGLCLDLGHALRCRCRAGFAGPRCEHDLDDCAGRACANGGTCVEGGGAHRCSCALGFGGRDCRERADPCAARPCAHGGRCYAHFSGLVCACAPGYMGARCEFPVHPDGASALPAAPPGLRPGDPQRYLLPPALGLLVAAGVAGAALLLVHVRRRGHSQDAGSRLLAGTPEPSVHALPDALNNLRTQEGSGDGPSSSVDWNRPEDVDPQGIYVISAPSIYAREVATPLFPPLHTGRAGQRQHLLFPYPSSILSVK
Procedure: (§1) The samples were analyzed by flow cytometry. […] Signals from the PE channel are shown on the x-axis and counts are shown on the y-axis.

EGF4-EGF6 = target: T2, EGF4-EGF6; test: as above
T2 construct: also called Human DLL3 EGF4-EGF6, N-terminal HA tag, on CHO cells
T2 single chain: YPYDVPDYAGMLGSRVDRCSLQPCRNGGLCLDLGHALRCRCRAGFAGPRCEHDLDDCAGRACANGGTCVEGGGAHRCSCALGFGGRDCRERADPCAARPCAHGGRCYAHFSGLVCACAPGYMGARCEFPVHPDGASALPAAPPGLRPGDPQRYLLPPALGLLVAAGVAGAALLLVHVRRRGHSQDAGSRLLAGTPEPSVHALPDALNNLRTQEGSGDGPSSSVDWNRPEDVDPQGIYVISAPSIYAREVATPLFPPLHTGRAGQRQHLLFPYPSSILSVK
Procedure: as §1

EGF2-EGF6 = target: T3, EGF2-EGF6; test: as above
T3 construct: also called Human DLL3 EGF2-EGF6, N-terminal HA tag, on CHO cells
T3 single chain: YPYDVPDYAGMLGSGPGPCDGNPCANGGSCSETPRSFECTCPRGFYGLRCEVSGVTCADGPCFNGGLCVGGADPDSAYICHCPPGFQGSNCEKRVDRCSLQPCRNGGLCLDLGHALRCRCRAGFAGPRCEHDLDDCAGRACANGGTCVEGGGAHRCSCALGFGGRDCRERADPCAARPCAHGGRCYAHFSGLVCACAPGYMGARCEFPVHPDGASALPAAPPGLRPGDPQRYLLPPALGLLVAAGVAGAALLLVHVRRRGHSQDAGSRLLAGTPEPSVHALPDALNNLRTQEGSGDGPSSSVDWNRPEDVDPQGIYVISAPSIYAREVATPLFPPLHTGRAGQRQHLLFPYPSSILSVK
Procedure: as §1

EGF1-EGF6 = target: T4, EGF1-EGF6; test: as above
T4 construct: also called Human DLL3 EGF1-EGF6, N-terminal HA tag, on CHO cells
T4 single chain: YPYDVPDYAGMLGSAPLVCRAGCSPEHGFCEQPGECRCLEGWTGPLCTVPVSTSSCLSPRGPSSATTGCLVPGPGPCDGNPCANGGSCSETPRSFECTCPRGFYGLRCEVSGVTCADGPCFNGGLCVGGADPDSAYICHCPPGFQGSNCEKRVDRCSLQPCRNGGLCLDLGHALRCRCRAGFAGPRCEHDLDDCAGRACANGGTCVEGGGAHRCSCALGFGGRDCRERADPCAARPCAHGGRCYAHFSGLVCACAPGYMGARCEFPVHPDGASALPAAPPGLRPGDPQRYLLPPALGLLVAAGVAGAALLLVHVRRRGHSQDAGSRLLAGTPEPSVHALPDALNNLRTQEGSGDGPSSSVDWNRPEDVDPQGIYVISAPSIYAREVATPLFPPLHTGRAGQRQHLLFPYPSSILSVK
Procedure: as §1

DSL-EGF6 = target: T5, DSL-EGF6; test: as above
T5 construct: also called Human DLL3 DSL-EGF6, N-terminal HA tag, on CHO cells
T5 single chain: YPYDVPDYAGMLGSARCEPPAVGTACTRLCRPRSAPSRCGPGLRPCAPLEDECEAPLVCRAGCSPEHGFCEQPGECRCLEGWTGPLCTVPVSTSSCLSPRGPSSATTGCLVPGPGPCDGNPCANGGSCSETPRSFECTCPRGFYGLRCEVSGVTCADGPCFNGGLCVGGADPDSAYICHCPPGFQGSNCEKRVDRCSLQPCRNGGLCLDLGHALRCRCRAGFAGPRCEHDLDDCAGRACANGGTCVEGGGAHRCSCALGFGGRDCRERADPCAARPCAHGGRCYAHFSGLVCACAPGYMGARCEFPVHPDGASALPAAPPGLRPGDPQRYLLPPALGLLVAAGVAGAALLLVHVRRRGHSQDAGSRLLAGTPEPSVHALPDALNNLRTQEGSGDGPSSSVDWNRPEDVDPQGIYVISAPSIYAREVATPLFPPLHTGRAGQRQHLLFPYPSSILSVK
Procedure: as §1

[1] = target: T6, human DLL3 extracellular domain (ECD) with C-terminal 8xHis tag and Avi tag (human, UniProt Q9NYJ7 27-492); test: SPR (Biacore), 37 C; IgG captured on chip, human DLL3 ECD in solution; 1:1 Langmuir fit
T6 construct: extracellular domain; Expressed in Expi293, purified by IMAC and SEC; also called huDLL3; not shown: Avi tag
T6 sequence: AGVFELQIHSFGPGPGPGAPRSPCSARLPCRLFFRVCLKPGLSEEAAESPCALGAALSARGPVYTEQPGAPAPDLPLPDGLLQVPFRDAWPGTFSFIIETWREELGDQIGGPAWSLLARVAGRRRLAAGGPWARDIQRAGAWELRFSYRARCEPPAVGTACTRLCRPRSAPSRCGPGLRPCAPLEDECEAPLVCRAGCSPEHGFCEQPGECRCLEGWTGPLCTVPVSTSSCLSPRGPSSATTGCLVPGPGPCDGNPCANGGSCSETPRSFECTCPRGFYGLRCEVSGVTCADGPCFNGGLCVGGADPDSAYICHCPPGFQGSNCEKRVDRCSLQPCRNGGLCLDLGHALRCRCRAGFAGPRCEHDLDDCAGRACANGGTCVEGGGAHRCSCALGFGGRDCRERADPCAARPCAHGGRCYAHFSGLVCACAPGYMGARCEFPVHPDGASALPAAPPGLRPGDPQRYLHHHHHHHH

EGF5-EGF6 = target: T7, EGF5-EGF6; test: flow cytometry on CHO cells with the HA tagged DLL3 construct, PE anti-mouse IgG
T7 construct: also called Human DLL3 EGF5-EGF6, N-terminal HA tag, on CHO cells
T7 single chain: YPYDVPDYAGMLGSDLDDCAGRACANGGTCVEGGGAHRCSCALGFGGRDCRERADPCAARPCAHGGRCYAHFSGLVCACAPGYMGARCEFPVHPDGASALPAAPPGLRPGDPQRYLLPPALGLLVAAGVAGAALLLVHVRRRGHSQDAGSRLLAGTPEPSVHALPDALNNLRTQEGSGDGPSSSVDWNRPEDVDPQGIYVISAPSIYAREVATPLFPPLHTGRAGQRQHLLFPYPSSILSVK
Procedure: as §1

EGF6 = target: T8, EGF6; test: as above
T8 construct: also called Human DLL3 EGF6, N-terminal HA tag, on CHO cells
T8 single chain: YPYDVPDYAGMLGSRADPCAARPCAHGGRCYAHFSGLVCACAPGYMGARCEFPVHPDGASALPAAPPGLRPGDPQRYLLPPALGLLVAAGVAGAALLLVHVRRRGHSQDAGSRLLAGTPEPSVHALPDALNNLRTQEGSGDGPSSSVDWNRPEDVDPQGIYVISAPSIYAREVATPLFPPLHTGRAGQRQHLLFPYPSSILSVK
Procedure: as §1

Binder	binding result (EGF3-EGF6)	binding result (EGF4-EGF6)	binding result (EGF2-EGF6)	binding result (EGF1-EGF6)	binding result (DSL-EGF6)	Kd [1] [nM]	binding result (EGF5-EGF6)	binding result (EGF6)
anti-DLL3 antibody 6D8 (IgG) (antibody, V domains shown, Full-length monoclonal antibody (IgG)) VH: QITLKESGPTLVKPTQTLTLTCTFSGFSLSTRGVGVGWIRQPPGKALEWLALIYWNDDKRYSPSLQTRLTITKDTPKNQVVLTMTNMDPVDTATYYCARSNWGNWYFALWGRGTLVTVSS VL: EIVLTQSPATLSLSPGERATLSCRASQSVSSYLAWYQQKPGQAPRLLIYDAFYRATGIPARFSGSGSGTDFTLTISSLEPEDFAVYYCQHRSNWPITFGQGTRLEIK	no binding	no binding	no binding	binds	binds	< 1.42	no binding	no binding
anti-DLL3 antibody 26C8 (IgG) (antibody, V domains shown, Full-length monoclonal antibody (IgG)) VH: QVQLQESGPGLVKPSETLSLTCTVSDNSISNYYWSWIRQPPGKGLEWIAYIYYSGTTNYNPSLKSRVTISLDTSKNQFSLQLSSVTAADAAVYYCARVFHWGFAFDIWGQGTMVTVSS VL: EIVLTQSPGTLSLSPGERATLSCRASQRVSNTYLAWYQQNPGQAPRLLIYGASSRATGIPDRFSGSGSGTDFTLTISRLEPEDFAVYYCQQYGTSPLTFGGGTKVEIK	binds	no binding	binds	binds	binds	5.54	no binding	no binding
anti-DLL3 antibody 5E12 (IgG) (antibody, V domains shown, Full-length monoclonal antibody (IgG)) VH: EVQLVESGGGLVQPGGSLRLSCAASGFTFSSYDMHWVRQATGKGLEWVSAIGPAGDTYYPGSVKGRFTISRENAKNSLYLQMNSLRAGDTAVYYCARADPPYYYYGMDVWGQGTTVTVSS VL: not shown	no binding	no binding	no binding	no binding	binds	7.76	no binding	no binding
